Data reported in patent US20180044383A1 (ALBERT EINSTEIN COLLEGE OF MEDICINE, published 2018).
Each block holds one molecule with its values, some of them ahead of it.

What was measured:
[1] = target: FKBP fused to miRFP-GAF670 (UniProt P62942); experiment: cell-based or functional assay
[2] = target: FKBP fused to miRFP-GAF709 (UniProt P62942); experiment: cell-based or functional assay
[3] = target: the molecule itself; experiment: sedimentation velocity analytical ultracentrifugation in PBS at 20 C, self-association (no dimer)
Procedure: FIG. 11A-11B. Monomeric state of miRFPs confirmed by analytical ultracentrifugation analysis. miRFPs from each family of miRFPs were analyzed by sedimentation velocity analytical ultracentrifugation. miRFP670 represents miRFP proteins derived from RpBphP1; miRFP670-2 represents monomerized iRFP670 and iRFP702 derived from RpBphP6; miRFP720 represents monomerized iRFP682, iRFP713, and iRFP720 derived from RpBphP2. The proteins were analyzed at concentrations of 15 μM in PBS buffer at 20° C., the time-derivative method was used. (a) Overlay of the sedimentation coefficient distributions for iRFP670-2 (blue), iRFP713 (red), miRFP720 (magenta), and miRFP670 (cyan). (b) Overlay of the normalized best-fit sedimentation coefficient distributions. (c) The residuals corresponding to the resolved fits shown in (b).
Analytical ultracentrifugation was conducted at 20° C. and 58,000 r.p.m. with anOptima XL-I centrifuge (Beckman Coulter) using the AN-60Ti rotor and the absorption optics set to 645 nm. Sednterp v.20120828beta software was used to calculate the partial specific volume of the proteins from their sequence and the density and viscosity of the buffers. The sedimentation parameters were corrected to standard conditions (20,w) using these values. […]

[4] = target: the molecule itself; experiment: size exclusion chromatography, self-association (no dimer)
Description: As a result, we have obtained miRFP670 (excitation/emission at 642 nm/670 nm) having Cys in the GAF domain and its dimmer version miRFP670v1 (Table 1). By changing Cys back to Ile and mutating residues 201 and 202, we found two red-shifted variants, miRFP703 (excitation/emission at 673 nm/703 nm) and miRFP709 (excitation/emission at 686 nm/709 nm) (Table 1). […] Absorbance of miRFPs was characterized by small side peaks at 280 nm (protein absorbance) and 390 nm (so called Soret band common to all tetrapyrrole compounds) and by large main peaks at 644 nm, 676 nm and 685 nm, indicative of the efficient BV incorporation. Monomeric states of miRFPs was confirmed by a size exclusion chromatography at 1 mg/ml as well as at concentrations as high as 30 mg/ml (FIG. 1d).
To perform size exclusion liquid chromatography a 2 ml volume of purified miRFPs was applied on the HiLoad 16/600 Superdex 200 column (GE Healthcare) equilibrated with 10 mM Hepes buffer pH 7.4 containing 50 μM EDTA, 10% glycerol, 150 mM NaCl, 1 mM DTT, 0.2 mM PMSF, 0.01% EP-40 and 0.2 mM […]. A 1 ml/min flow rate was used. The column was calibrated using the gel filtration standards (Bio-Rad Laboratories).

miRFP-GAF670 = target: T1, miRFP-GAF670; experiment: bimolecular fluorescence complementation in HeLa cells (fragments as FRB and FKBP fusions, rapamycin-induced)
T1 construct: Split fragment; in the experiments it stood as a fusion (to FKBP or PCP); also called GAF fragment of miSplit670
T1 chain: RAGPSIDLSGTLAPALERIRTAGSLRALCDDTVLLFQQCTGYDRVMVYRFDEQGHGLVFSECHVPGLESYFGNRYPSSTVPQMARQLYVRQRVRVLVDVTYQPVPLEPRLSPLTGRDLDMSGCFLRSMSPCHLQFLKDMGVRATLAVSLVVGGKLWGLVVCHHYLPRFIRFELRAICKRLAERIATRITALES
Procedure: (§1) The two mSplits share the same miRFP-PAS fragment that can interact with either miRFP-GAF670 or miRFP-GAF709 fragments producing the fluorescence signal corresponding to complemented miSplit670 or miSplit709, respectively. (b, c) Brightness and complementation contrast of miSplit670 (b) and miSplit709 (c) in live HeLa cells. HeLa cells were transiently transfected with the plasmids encoding the indicated proteins. Rapamycin (Rapa) was added where indicated. The mean fluorescence intensities of cells were analyzed by flow cytometry. Error bars, s.d. (n=3; transfection experiments). (d) Two-color imaging of two alternative PPIs in one cell. […] MCP and PCP are fused with two fragments of mi Split reporter. mRNA serves as a scaffold to bring two split fragments together and reconstitute fluorescence. […] The mean fluorescence intensities of cells were analyzed by flow cytometry. […] (g) Representative images of live HeLa cells analyzed in (f). […]
(§2) We first characterized miSplits using a rapamycin-induced PPI of FRB and FKBP proteins. We fused FRB to the miRFP-PAS domain and FKBP to either miRFP-GAF670 or miRFP-GAF709 domains and tested their effective brightness and BiFC contrast (the ratio between a stimulus-induced fluorescence signal and a fluorescence signal originated from non-specific complementation) in mammalian cells.

miRFP-GAF709 = target: T2, miRFP-GAF709; experiment: as above
T2 construct: Split fragment; in the experiments it stood as a fusion (to FKBP or PCP); also called GAF fragment of miSplit709
T2 chain: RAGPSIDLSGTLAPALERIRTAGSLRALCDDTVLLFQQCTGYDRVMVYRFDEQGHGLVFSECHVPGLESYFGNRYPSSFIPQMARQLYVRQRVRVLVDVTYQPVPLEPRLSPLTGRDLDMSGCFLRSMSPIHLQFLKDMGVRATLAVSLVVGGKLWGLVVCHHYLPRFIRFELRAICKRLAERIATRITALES
Procedure: as §1, §2

BiFC contrast 0.5 h after rapamycin addition [1]: 2 fold
BiFC contrast (the ratio between a stimulus-induced fluorescence signal and a fluorescence signal originated from non-specific complementation), miSplit670, HeLa cells, flow cytometry, 50 nM rapamycin [1]: > 20 fold
effective brightness of the complemented miSplit670 relative to parental full-length miRFP [1]: > 40%
BiFC contrast 0.5 h after rapamycin addition [2]: 2 fold
BiFC contrast (the ratio between a stimulus-induced fluorescence signal and a fluorescence signal originated from non-specific complementation), miSplit709, HeLa cells, flow cytometry, 50 nM rapamycin [2]: > 20 fold
effective brightness of the complemented miSplit709 relative to parental full-length miRFP [2]: > 40%
Molecule: FRB fused to miRFP-PAS (from UniProt P42345 2021-2113)

B1: miRFP670-2 (other)
chain: MARKVDLTSCDREPIHIPGSIQPCGCLLACDAQAVRITRITENAGAFFGRETPRVGELLADYFGETEAHALRNALAQSSDPKRPALIFGWRDGLTGRTFDISLHRHDGTSIIEFEPAAAEQADNPLRLTRQIIARTKELKSLEEMAARVPRYLQAMLGYHRVMLYRFADDGSGMVIGEAKRSDLESFLGQHFPASLVPQQARLLYLKNAIRVVSDSRGISSRIVPEHDASGAALDLSFAHLRSISPCHLEFLRNMGVSASMSLSIIIDGTLWGLIICHHYEPRAVPMAQRVAAKRFAERLSTHFTAAHHQR
modifications: biliverdin (BV) chromophore
notes: Monomerized version of dimeric iRFP670 (derived from RpBphP6); also called monomerized iRFP670
binding result [3]: no binding (tested: 15 µM)

B2: miRFP670 (other)
chain: MVAGHASGSPAFGTASHSNCEHEEIHLAGSIQPHGALLVVSEHDHRVIQASANAAEFLNLGSVLGVPLAEIDGDLLIKILPHLDPTAEGMPVAVRCRIGNPSTEYCGLMHRPPEGGLIIELERAGPSIDLSGTLAPALERIRTAGSLRALCDDTVLLFQQCTGYDRVMVYRFDEQGHGLVFSECHVPGLESYFGNRYPSSTVPQMARQLYVRQRVRVLVDVTYQPVPLEPRLSPLTGRDLDMSGCFLRSMSPCHLQFLKDMGVRATLAVSLVVGGKLWGLVVCHHYLPRFIRFELRAICKRLAERIATRITALES
modifications: biliverdin (BV) chromophore; filing says miRFP670 has the BV-binding Cys in the GAF domain (-PIH- motif Ile replaced by Cys)
notes: Monomeric near-infrared fluorescent protein engineered from the PAS-GAF domains of RpBphP1; also called mRFP670
binding result [4]: no binding (tested: 30 mg/ml)

B3: miRFP709 (other)
chain: MVAGHASGSPAFGTASHSNCEHEEIHLAGSIQPHGALLVVSEHDHRVIQASANAAEFLNLGSVLGVPLAEIDGDLLIKILPHLDPTAEGMPVAVRCRIGNPSTEYCGLMHRPPEGGLIIELERAGPSIDLSGTLAPALERIRTAGSLRALCDDTVLLFQQCTGYDRVMVYRFDEQGHGLVFSECHVPGLESYFGNRYPSSFIPQMARQLYVRQRVRVLVDVTYQPVPLEPRLSPLTGRDLDMSGCFLRSMSPIHLQFLKDMGVRATLAVSLVVGGKLWGLVVCHHYLPRFIRFELRAICKRLAERIATRITALES
modifications: biliverdin (BV) chromophore bound to the conserved Cys residue in the PAS domain
notes: Engineered from RpBphP1 PAS-GAF
binding result [4]: no binding (tested: 30 mg/ml)

B4: miRFP703 (other)
chain: MVAGHASGSPAFGTASHSNCEHEEIHLAGSIQPHGALLVVSEHDHRVIQASANAAEFLNLGSVLGVPLAEIDGDLLIKILPHLDPTAEGMPVAVRCRIGNPSTEYCGLMHRPPEGGLIIELERAGPSIDLSGTLAPALERIRTAGSLRALCDDTVLLFQQCTGYDRVMVYRFDEQGHGLVFSECHVPGLESYFGNRYPSSLVPQMARQLYVRQRVRVLVDVTYQPVPLEPRLSPLTGRDLDMSGCFLRSMSPIHLQFLKDMGVRATLAVSLVVGGKLWGLVVCHHYLPRFIRFELRAICKRLAERIATRITALES
modifications: biliverdin (BV) chromophore bound to the conserved Cys residue in the PAS domain
notes: as for B3
binding result [4]: no binding (tested: 30 mg/ml)

B5: miRFP720 (other)
chain: MAEGSVARQPDLLTCDDEPIHIPGAIQPHGLLLALAADMTIVAGSDNLPELTGLAIGALIGRSAADVFDSETHNRLTIALAEPGAAVGAPITVGFTMRKDAGFIGSWHRHDQLIFLELEPPQRDVAEPQAFFRRTNSAIRRLQAAETLESACAAAAQEVRKITGFDRVMIYRFASDFSGSVIAEDRCAEVESKLGLHYPASFIPAQARRLYTINPVRIIPDINYRPVPVTPDLNPVTGRPIDLSFAILRSVSPNHLEFMRNIGMHGTMSISILRGERLWGLIVCHHRTPYYVDLDGRQACKRVAERLATQIGVMEE
modifications: biliverdin (BV) chromophore
notes: Monomerized version of dimeric iRFP720 (derived from RpBphP2); also called monomerized iRFP720
binding result [3]: no binding (tested: 15 µM)

binding result (miRFP-GAF670): binds
binding result (miRFP-GAF709): binds
B6: miRFP-PAS (other)
chain: MVAGHASGSPAFGTASHSNCEHEEIHLAGSIQPHGALLVVSEHDHRVIQASANAAEFLNLGSVLGVPLAEIDGDLLIKILPHLDPTAEGMPVAVRCRIGNPSTEYCGLMHRPPEGGLIIELERAGP
notes: Split fragment; in the experiments it stood as a fusion (to FRB or to MCP); also called miRFP670-PAS domain; PAS fragment of miSplit670 and miSplit709
